Patent US20090298755A1 (NEW ENGLAND MEDICAL CENTER HOSPITALS, published 2009)
Ends that are not written are not given here.

Experiments:
µ receptor (rat brain) = target: T1, µ receptor (rat brain) (rat, UniProt P33535 1-398); test: radioligand competition, [3H]DAMGO on crude rat brain plasma membranes, 4 C, 90 min, filtration
T1 construct: whole, on cells; Native receptor in crude rat brain plasma membrane homogenate, not on intact cells; also called µ opioid receptor; opioid receptor
Description: (§1) For binding assays to opioid receptors, frozen rat brains (−80° C.) were homogenized in 40 volumes of standard Tris buffer (50 mM Tris HCl (pH 7.4), 0.2 mg/ml BSA, 2.5 mM EDTA, 40 μg/m bacitracin, 30 μg/ml bestatin and 5 mM MgCl₂) and centrifuged at 15,000×g for 20 minutes. 100 mM NaCl was added to the buffer, in order to remove endogenous ligands, and the centrifugation was repeated. After a wash with standard buffer, the membrane preparation was finally resuspended in 10 volumes of incubation buffer (standard buffer with 4 μg/ml leupeptin and 2 μg/ml chymostatin). […] The brain homogenates were used on the day of preparation.
After incubation the samples were filtered on a Brandell-Harvester using an appropriate GF/B filter soaked in 50 mM Tris HCl (pH 7A) and 0.5% PEI. Scintillation fluid was added to the filters in order to solubilize the membranes, and a beta-counter was used to quantify radioactivity.

NK1 receptor (rat brain) = target: T2, NK1 receptor (rat brain) (rat, UniProt P14600 1-407); test: radioligand competition, [125I]BH-SP on crude rat brain plasma membranes, room temperature, 75 min, filtration
T2 construct: whole, on cells; Native receptor in crude rat brain plasma membrane homogenate, not on intact cells; also called SP receptor
T2 sequence (P14600 whole entry): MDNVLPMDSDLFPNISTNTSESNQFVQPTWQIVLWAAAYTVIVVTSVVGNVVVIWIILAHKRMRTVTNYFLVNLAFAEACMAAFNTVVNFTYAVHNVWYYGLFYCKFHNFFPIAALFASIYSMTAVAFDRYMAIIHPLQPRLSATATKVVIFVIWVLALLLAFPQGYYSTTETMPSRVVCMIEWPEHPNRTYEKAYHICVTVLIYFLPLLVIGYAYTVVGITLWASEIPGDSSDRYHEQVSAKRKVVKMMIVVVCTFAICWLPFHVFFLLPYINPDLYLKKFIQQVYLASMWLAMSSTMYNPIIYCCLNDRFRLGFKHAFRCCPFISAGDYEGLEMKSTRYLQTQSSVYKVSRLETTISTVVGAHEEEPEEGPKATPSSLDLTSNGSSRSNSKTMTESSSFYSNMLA
Description: as §1
After filtration, the radioactivity was determined on a gamma-counter.

T1 sequence (P33535 whole entry): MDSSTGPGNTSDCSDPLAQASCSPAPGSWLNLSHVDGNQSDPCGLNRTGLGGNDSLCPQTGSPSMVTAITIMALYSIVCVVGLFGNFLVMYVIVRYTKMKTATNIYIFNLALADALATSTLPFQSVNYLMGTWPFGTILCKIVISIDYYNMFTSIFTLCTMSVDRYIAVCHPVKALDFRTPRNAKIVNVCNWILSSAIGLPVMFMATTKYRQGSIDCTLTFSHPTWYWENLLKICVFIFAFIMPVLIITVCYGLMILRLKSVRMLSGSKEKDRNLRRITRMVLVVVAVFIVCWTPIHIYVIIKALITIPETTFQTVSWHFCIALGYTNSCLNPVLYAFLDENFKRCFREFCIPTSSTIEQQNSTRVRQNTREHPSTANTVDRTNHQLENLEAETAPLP

B1: ESP7 (peptide)
peptide: YPFFGLM-NH2
notes: Chimera of endomorphin-2 at the N-terminus and SP(7-11) at the C-terminus; also called chimeric peptide ESP7; Tyr-Pro-Phe-Phe-Gly-Leu-Met-NH2
Binder B1 has a Kd (µ receptor (rat brain)) of ~300 nM and a Kd (NK1 receptor (rat brain)) of ~200 nM.
